The subject of series [1] is T1, eNme2-C-dABE8e (Neisseria meningitidis).
T1 sequence: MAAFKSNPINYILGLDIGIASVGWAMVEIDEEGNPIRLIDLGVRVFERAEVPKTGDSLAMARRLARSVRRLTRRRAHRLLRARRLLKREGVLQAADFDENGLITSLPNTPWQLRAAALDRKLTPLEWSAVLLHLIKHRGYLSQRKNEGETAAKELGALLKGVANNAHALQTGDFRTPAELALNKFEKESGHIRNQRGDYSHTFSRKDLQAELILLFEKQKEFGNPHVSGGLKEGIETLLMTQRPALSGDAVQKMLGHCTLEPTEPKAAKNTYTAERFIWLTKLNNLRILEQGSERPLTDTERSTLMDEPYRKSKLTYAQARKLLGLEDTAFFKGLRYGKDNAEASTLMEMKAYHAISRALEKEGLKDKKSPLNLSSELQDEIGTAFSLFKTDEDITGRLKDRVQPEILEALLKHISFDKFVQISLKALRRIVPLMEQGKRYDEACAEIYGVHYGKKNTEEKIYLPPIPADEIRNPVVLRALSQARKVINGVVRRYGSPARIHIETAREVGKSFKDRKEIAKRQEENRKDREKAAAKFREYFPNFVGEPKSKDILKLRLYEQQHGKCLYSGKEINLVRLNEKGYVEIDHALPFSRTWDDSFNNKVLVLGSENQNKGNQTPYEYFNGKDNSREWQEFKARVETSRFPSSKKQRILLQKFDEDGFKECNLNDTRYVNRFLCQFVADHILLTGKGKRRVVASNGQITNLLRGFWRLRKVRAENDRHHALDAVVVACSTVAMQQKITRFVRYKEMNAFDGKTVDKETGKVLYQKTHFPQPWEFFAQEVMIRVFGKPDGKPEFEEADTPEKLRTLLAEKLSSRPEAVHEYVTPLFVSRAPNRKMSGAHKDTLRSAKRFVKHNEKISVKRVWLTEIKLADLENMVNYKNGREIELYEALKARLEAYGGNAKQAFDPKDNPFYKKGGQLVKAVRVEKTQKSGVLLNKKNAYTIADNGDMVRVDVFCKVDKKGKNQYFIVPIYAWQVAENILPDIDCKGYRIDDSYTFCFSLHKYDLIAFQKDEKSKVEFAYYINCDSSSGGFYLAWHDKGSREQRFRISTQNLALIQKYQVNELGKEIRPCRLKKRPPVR
Briefly: cell_activity. As to conditions: all N4CN PAMs, E. coli ABE-PPA.

The test system of series [2] is T2, E3-18-ABE8e (Neisseria meningitidis).
T2 sequence: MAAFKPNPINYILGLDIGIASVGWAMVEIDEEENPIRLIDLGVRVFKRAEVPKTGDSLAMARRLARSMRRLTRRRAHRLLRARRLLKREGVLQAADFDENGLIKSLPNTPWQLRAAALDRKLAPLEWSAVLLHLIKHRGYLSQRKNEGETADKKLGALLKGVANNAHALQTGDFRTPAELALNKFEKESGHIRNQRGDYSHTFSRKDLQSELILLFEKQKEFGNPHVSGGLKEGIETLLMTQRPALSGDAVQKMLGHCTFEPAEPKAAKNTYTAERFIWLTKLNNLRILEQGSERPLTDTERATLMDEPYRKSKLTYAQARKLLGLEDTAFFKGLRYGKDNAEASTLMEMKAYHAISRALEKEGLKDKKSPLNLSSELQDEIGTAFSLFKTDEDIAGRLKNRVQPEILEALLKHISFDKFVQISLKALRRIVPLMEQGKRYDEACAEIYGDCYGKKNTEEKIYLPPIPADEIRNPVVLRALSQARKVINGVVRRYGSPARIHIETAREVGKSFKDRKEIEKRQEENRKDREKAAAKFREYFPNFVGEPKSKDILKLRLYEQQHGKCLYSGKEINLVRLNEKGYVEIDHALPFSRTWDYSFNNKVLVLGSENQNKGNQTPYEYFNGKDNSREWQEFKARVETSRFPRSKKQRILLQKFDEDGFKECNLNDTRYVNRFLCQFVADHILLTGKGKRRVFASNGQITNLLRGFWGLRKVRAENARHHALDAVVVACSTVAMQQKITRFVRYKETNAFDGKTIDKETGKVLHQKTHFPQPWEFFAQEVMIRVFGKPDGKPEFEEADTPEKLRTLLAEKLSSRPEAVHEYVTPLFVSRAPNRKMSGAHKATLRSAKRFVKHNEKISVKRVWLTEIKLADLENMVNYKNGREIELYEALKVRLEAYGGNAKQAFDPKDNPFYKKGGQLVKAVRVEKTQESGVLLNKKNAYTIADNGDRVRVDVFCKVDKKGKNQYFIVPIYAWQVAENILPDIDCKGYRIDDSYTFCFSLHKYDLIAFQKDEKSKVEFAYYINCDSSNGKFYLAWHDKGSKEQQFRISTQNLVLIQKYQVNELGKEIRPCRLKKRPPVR
In words: cell_activity. As to conditions: PAM N4YNC average, E. coli ABE-PPA; 33% on N4YND.

“AUGGCCCAGACUGAGCACGUGAGGUUGUAGCUCCCUUUCUCAUUUCGGAAACGAAAUGAGAACCGUUGCUACAAUAAGGCCGUCUGAAAAGAUGUGCCGCAACGCUCUGCCCCUUAAAGCUUCUGCUUUAAGGGGCAUCGUUUA / ATGGCCCAGACTGAGCACGTGA / TCACGTGCTCAGTCTGGGCCAT [ABE-PPA sgRNA ; ABE-PPA protospacer library target]”: the activity (% A-to-G conversion) in series [1] is above 80; in series [2], 61.

The values above are taken from patent US20250027114.
